Assay: soluble on expression in E. coli; label from the status in PepcDB or PDB records

For “MSLKLEIIAIGGYEEVGRNMTAVNVDGEIIILDMGIRLDRVLIHEDTDISKLHSLELIEKGIIPNDTVMKNIEGEVKAIVLSHGHLDHIGAVPKLAHRYNAPIIGTPYTIELVKREILSEKKFDVRNPLIVLNAGESIDLTPNITLEFIRITHSIPDSVLPVLHTPYGSIVYGNDFKFDNFPVVGERPDYRAIKKVGKNGVLCFISETTRINHEGKTPPEIIASGLLKNDLLAADNDKHGIIVTTFSSHIARIKSITDIAEKMGRTPVLLGRSMMRFCGIAQDIGLVKFPEDLRIYGDPSSIEMALKNIVKEGKEKYLIIATGHQGEEGAVLSRMATNKTPYKFEKYDCVVFSADPIPNPMNAAQRYMLESRLKLLGVRIFKGAHVSGHAAKEDHRDMLRWLNPEHIIPSHGDFNLTAEYTKLAEEEGYRLGEDVHLLRNGQCLSFEREGHHHHHH”, which “soluble on expression in E. coli” value is on record?
Its value is “soluble”.

Which “soluble on expression in E. coli” value does the source give for “MGSDKIHHHHHHMSQHVLIAGGGIVGCLTAMELVSRGCRVTIVERNNIASQTSGESSWAGTGIMFPLLPWMYSDHVNTLTHYGASLYPDICARLFKETGIDPQMLDSGFLLLPPFDREAALTWCARYQVKAEDTKAAGFGVQSPNGQDALWLPDVKQVRPPCLMHALRTWLENHHVRLLERTELMPLSPGTSRLTAWATTSGELLEADRFIVTSGAWSFELLKEVASKLQIKPMRGQILLYKPEHNPRAVIFREDFYLVPRRDGYLLAGSTLEDVGFDPSVTDTVRDAIRAKAAALMPELADLPILKHWSGLRPGTPENLPIISPHPGIENLYLNTGHFRYGLTMGPASASLAAALVCGETPWTDPTPFSLPQ” here?
Its value is “not soluble”.

For “MGSDKIHHHHHHMILLNKPVAPNLQKLNSYLERVHDTGWYTNFGPLHNELTEKLEEYLGVSNLLLVSNGTLAIQLAAKVFNVKQTITTPFSFVATSSSLLWQGIDLAYSDIERSSLNICPEELEKNWKSNDSYDSLLATHVYGNPCDVQKIDEIAKKYNKKIMYDAAHAFGIKVGNKSVLSFGDASTLSFHATKVFHTVEGGAVIFKDRNHFDEAKSLINFGIQNDGTLGTPGINAKLNEYQAAVGLCLLESIDDIICHRSNLFEIYRKELSNVIELPLWHRDSNYNGAYMPILPSTEVERLKIGEQLKANNIQFRRYFYPSLDKAYLRVKSFNCPVSNYIAENALCLPLHMYMTKEDVLKITATIKEIY”, which “soluble on expression in E. coli” value is on record?
Its value is “not soluble”.

Which “soluble on expression in E. coli” value does the source give for “AHHHHHHGSKILAIAPNISRPYLGPAAVVHNTLKGFIKINKELEREDIEITFLSINDKIKSKKLTDNINIIGTKRFPPVTFTGEIQALFVSRKLEKPDLVHSHDLYEIFPWILKKIPTIFTLHGIVWKEKMFTKSLYAKLWYYLYEKRLRAYHKKFTKFVAISP” here?
The value was “not soluble”.

Which “soluble on expression in E. coli” value does the source give for “MNDVPHRPQVKTRKALTPLLEIRNLTKSFDGQHAVDDVSLTIYKGEIFALLGASGCGKSTLLRMLAGFEPPSSGQIMLDGVDLAHVPPYQRPINMMFQSYALFPHMTVEQNIAFGLKQDKLPKAEITSRVNEMLGLVHMQEFAKRKPHQLSGGQRQRVALARSLAKRPKLLLLDEPMGALDKKLRDRMQLEVVDILERVGVTCVMVTHDQEEAMTMAGRIAIMNRGKFVQIGEPEEIYEHPTTRYSAEFIGSVNVFEGLLKAREEDGLVIDAPGLVHPLKVDADASVVDNVPVYVALRPEKIMLCESPPADGYNFAVGEVAHIAYLGDLSIYHVRLKSGQMISAQLQNAHRYRKGLPTWGDEVRLCWEADSCVVLTV” here?
The value was “not soluble”.

With “GMTTKDISRPVCILGLGLIGGSLLRDLHAANHSVFGYNRSRSGAKSAVDEGFDVSADLEATLQRAAAEDALIVLAVPMTAIDSLLDAVHTHAPNNGFTDVVSVKTAVYDAVKARNMQHRYVGSHPMAGTANSGWSASMDGLFKRAVWVVTFDQLFDGTDINSTWISIWKDVVQMALAVGAEVVPSRVGPHDAAAARVSHLTHILAETLAIVGDNGGALSLSLAAGSYRDSTRVAGTDPGLVRAMCESNAGPLVKALDEALAILHEAREGLTAEQPNIEQLADNGYRSRIRYEARSGQRRAKESVSPTITSSRPVLRLHPGTPNWEKQLIHAETLGARIEVF” as the sequence, how does the “soluble on expression in E. coli” value read?
Its value is “soluble”.

Which “soluble on expression in E. coli” value does the source give for “MAHHHHHHMCKDKNEKKNYEHVNANEKNGYLASEKNELTKNKVEEHTYDYDYVVIGGGPGGMASAKEAAAHGARVLLFDYVKPSSQGTKWGIGGTCVNVGCVPKKLMHYAGHMGSIFKLDSKAYGWKFDNLKHDWKKLVTTVQSHIRSLNFSYMTGLRSSKVKYINGLAKLKDKNTVSYYLKGDLSKEETVTGKYILIATGCRPHIPDDVEGAKELSITSDDIFSLKKDPGKTLVVGASYVALECSGFLNSLGYDVTVAVRSIVLRGFDQQCAVKVKLYMEEQGVMFKNGILPKKLTKMDDKILVEFSDKTSELYDTVLYAIGRKGDIDGLNLESLNMNVNKSNNKIIADHLSCTNIPSIFAVGDVAENVPELAPVAIKAGEILARRLFKDSDEIMDYSYIPTSIYTPIEYGACGYSEEKAYELYGKSNVEVFLQEFNNLEISAVHRQKHIRAQKDEYDLDVSSTCLAKLVCLKNEDNRVIGFHYVGPNAGEVTQGMALALRLKVKKKDFDNCIGIHPTDAESFMNLFVTISSGLSYAAKGGCGGGKCG” here?
The value was “soluble”.

For “SEACVSVTSSILSSMDPTVDPCHDFFSYACGGWIKANPVPDGHSRWGTFSNLWEHNQAIIKHLLENSTASVSEAERKAQVYYRACMNETRIEELRAKPLMELIERLGGWNITGPWAKDNFQDTLQVVTAHYRTSPFFSVYVSADSKNSNSNVIQVDQSGLGLPSRDYYLNKTENEKVLTGYLNYMVQLGKLLGGGDEEAIRPQMQQILDFETALANITIPQEKRRDEELIYHKVTAAELQTLAPAINWLPFLNTIFYPVEINESEPIVVYDKEYLEQISTLINTTDRCLLNNYMIWNLVRKTSSFLDQRFQDADEKFMEVMYGTKKTSLPRWKFCVSDTENNLGFALGPMFVKATFAEDSKSIATEIILEIKKAFEESLSTLKWMDEETRKSAKEKADAIYNMIGYPNFIMDPKELDKVFNDYTAVPDLYFENAMRFFNFSWRVTADQLRKAPNRDQWSMTPPMVNAYYSPTKNEIVFPAGILQAPFYTRSSPKALNFGGIGVVVGHELTHAFDDQGREYDKDGNLRPWWKNSSVEAFKRQTECMVEQYSNYSVNGEPVNGRHTLGENIADNGGLKAAYRAYQNWVKKNGAEHSLPTLGLTNNQLFFLGFAQVWCSVRTPESSHEGLITDPHSPSRFRVIGSLSNSKEFSEHFRCPPGSPMNPPHKCEVW”, which “soluble on expression in E. coli” value is on record?
Its value is “soluble”.

With “MGSDKIHHHHHHMRTIDTIFSSEVNVPLYHYTGIGSLLGMANCKSVWASSISYMNDSKEIVHACETVENVLRARIVFGQKDEEHRFLEQLIEWTKSCSKVAHTMFVFSLSEKPSLLSQWRSYTPHGKGVSLEFSPNKVNEIARFTGMRIAKCVYDDREQEEIISILVEKLLVNFRQELPAMDITDKPPSQCYYDFINQYTSDIYQVLAIIKHGAFEEECEWRLISPHIPKFGDPRLKFREGASMLVPYIELPLGDKPFFRKIILGPSQHQNLNMSGLSMFMSNQGISNELLNCQIPYREW” as the sequence, how does the “soluble on expression in E. coli” value read?
Its value is “not soluble”.

For “MQHHGVTKCNITCSKMTSKIPVALLIHYQQNQASCGKRAIILETRQHRLFCADPKEQWVKDAMQHLDRQAAALTRNG”, which “soluble on expression in E. coli” value is on record?
Its value is “soluble”.

With “MRMNLTNHFLVAMPGMKDPYFQNSVIYVCEHNEEGAMGLMINAPVDITVGNMLKQVDVQPVHPRLFEASLDRPVYNGGPISEDRGFILHKPKDYYESSIQMTDDLAVTTSRDILSVLGTEAEPSDYLVALGYSGWSAGQLENELVENSWLTIEATPEIIFDTPITERWKKAVEKLGIDPSQLSADAGHALEHHHHHH” as the sequence, how does the “soluble on expression in E. coli” value read?
Its value is “soluble”.

Which “soluble on expression in E. coli” value does the source give for “MPIHHAIVHLIEKKPDGTPAVLHARDAELGDSQAIENLLADLNESYNAKNKAWGFFQGESGAYPFSGWLGEYLEGDRDFVGFSREAVEHLQKLMEESNLSTGGHILFAHYQQGMTDYLAIALLHHSEGVAVNESLEVTPSRHLDLGQLHLAARINISEWRNNKQSKQYISFIKGKGGKKVSDYFRDFIGCQEGVDSPSETRTLLKAFSDFVESEDMAEEQAREKTETLVDYATSQARIGEPMTLDALSELMDDQQPRAFYDYIRNKDYGLSPEIPADKRTLNQFRRFTGRAEGLSISFEAHLLGSKVEYDEERDMLIIRQLPTQLKDQLKRRKDLEHHHHHH” here?
The value was “not soluble”.

For “MKIGFIGTGSMGTILIESFLESSALTAEQIVITNRTQEKADALARRYPGLSVVDRPEEVVQQTDCFFVCVKPMQFHRVLMDIRPHCSANKLLVSITSPISIAQLENSVDCKVARAIPSILNRACAGSTLVSFSERCLEEDRSFLCGLLGTISEPLLIEEKITRVSSDIVSCGPAFFSYLTQRFIEAAVRQTAISEEDATALATEMLIGIGKLLDQELYTLPSLQKRVCVPGGITGEGIRVLEEDVGHMFDRLFQKTHQKYYHEQEKISSQLTLKGMAGDPNSLEHHHHHH”, which “soluble on expression in E. coli” value is on record?
Its value is “not soluble”.

Which “soluble on expression in E. coli” value does the source give for “MSTQNEESEESARRPQSISHLARVEVEEPARKMRLMFGEKQVVFIRSDGLRSRVVRENMKKKLSQEIEKKEDLDTDSPNLTKVIDDVASGATGSSSLPSSSTESYSTSSSSSSSSSDLNSAYSSTSEPQATSSSAPESSTNSSASPEIKGNRNYHPPREFHGASTMVSHKRRWTYQTACDINAAEQSGDSEMYYIAHPLLPMPRGSGRNEVSTATRMNYAGQQIDNRKFRGQSKAVNQFANTESVTCEKCGMRYFFESIQMQERISYLLPPNEEDLPIALFECPVCKITTKVK” here?
Its value is “not soluble”.

With “GSGNRTRKRRMINASVWMPPMENEEKNRKNHQSITSSQHSLLEASYDGYIKRQRNELQHYSLYPNPQGYGNGNDFLGDFNHTNLQIPTEPEPESPIKLHTEAAGSYAITEPITRESVNIIDPRHNRTVLHWIASNSSAEKSEDLIVHEAKECIAAGADVNAMDCDENTPLMLAVLARRRRLVAYLMKAGADPTIYNKSERSALHQAAANRDFGMMVYMLNSTKLKGDIEELDRNGMTALMIVAHNEGRDQVASAKLLVEKGAKVDYDGAARKDSEKYKGRTALHYAAQVSNMPIVKYLVGEKGSNKDKQDEDGKTPIMLAAQEGRIEVVMYLIQQGASVEAVDATDHTARQLAQANNHHNIVDIFDRCRPERE” as the sequence, how does the “soluble on expression in E. coli” value read?
Its value is “soluble”.

With “MFIAGYIEKPERGKDIILTEKGRISNEKFFPTLEEKRLIDQYWKNKSELRKARKKANSIIDDSTSTKAVEIDENSGDSDWKTELIDQLKKFSPGKFESFSRLLISKMGVRIDNQRGIIRSGDHSIDGFGYFQSDEFRTSRVAIQAKRFTNGSVGEPEIDKFKGVMDSFNAEYGIFITTSYFTDQAKEKAVVGNNSVTLIDGIKLASLVQKYQLRV” as the sequence, how does the “soluble on expression in E. coli” value read?
The value was “not soluble”.

With “MGSDKIHHHHHHMLELTDDLRIGHPVIDADHQRLIEIINEFLEHSNEVNPQILHETLKSLLAYGREHFAREEGIQRQCLYPYQQGHSNEHKSLLDQVREIARAYFVAKTKPLNATSVQDVNELLKAWLIGHVKKFDTSMRDWVAPSLDMDAPRIKLASPDLAALIISPNERSRARLADLLSELGASKVLQAEDSITGLGMAFGDPVPDFIFCDLETEPLDGGAFAGALRGSNKAYITRIPLLLLHDAEDAEAIQNAMAAGASGVYPKSFNPTNLGRLLNQLLLR” as the sequence, how does the “soluble on expression in E. coli” value read?
The value was “not soluble”.

With “MTLMKKFYVTTPIYYVNDVPHLGHAYTTIAADTIARYYRLRDYDVFFLTGTDEHGLKIQKKAEELGISPKELVDRNAERFKKLWEFLKIEYTKFIRTTDPYHVKFVQKVFEECYKRGDIYLGEYEGWYCVGCEEFKSEAELAEDHTCPIHQKKCEYIKEPSYFFRLSKYQDKLLELYEKNPEFIQPDYRRNEIISFVKQGLKDLSVTRPRSRVKWGIPVPFDPEHTIYVWFDALFNYISALEDKVEIYWPADLHLVGKDILRFHTVYWPAFLMSLGYELPKKVFAHGWWTVEGKKMSKTLGNVVDPYEVVQEYGLDEVRYFLLREVPFGQDGDFSKKAILNRINGELANEIGNLYSRVVNMAHKFLGGEVSGARDEEYAKIAQESIKNYENYMEKVNFYKAIEEILKFTSYLNKYVDEKQPWALNKERKKEELQKVLYALVDGLFVLTHLLYPITPNKMKEALQMLGEKEFLKELKPYSKNTYKLGERKILFPKREG” as the sequence, how does the “soluble on expression in E. coli” value read?
Its value is “soluble”.
